# Laboratory results: paper PMC6829862, “Gγ and Gα Identity Dictate a G-Protein Heterotrimer Plasma Membrane Targeting” (Cells, 2019)
# B1: Citrine–Gαs (natural protein)
# chain: MGCLGNSKTEDQRNEEKAQREANKKIEKQLQKDKQVYRATHRLLLLGAGESGKSTIVKQMRILHVNGFNGNSDGEKATKVQDIKNNLKEAIETIVAAMSNLVPPVELANPENQFRVDYILSVMNVPDFDFPPEFYEHAKALWEDEGVRACYERSNEYQLIDCAQYFLDKIDVIKQADYVPSDQDLLRCRVLTSGIFETKFQVDKVNFHMFDVGGQRDERRKWIQCFNDVTAIIFVVASSSYNMVIREDNQTNRLQEALNLFKSIWNNRWLRTISVILFLNKQDLLAEKVLAGKSKIEDYFPEFARYTTPEDATPEPGEDPRVTRAKYFIRDEFLRISTASGDGRHYCYPHFTCAVDTENIRRVFNDCRDIIQRMHLRQYELL
# notes: Gαs subunit (stimulatory G-protein alpha subunit); cDNA in pcDNA3.1+ from UMR cDNA Resource Center; also called wild-type Gαs; loop-tagged Gαs; source: HEK 293, transiently transfected; in living cells (FLIM-FRET) and in cell lysate (pull-down); not shown: Citrine, internal (in place of the loop Glu71-Ser82), kept
# Biological target: T1, mCherry–Gβ1γ2 dimer (UniProt P62873 1-340; P59768 1-71, 20-carbon geranylgeranyl lipid on the cysteine of the C-terminal CaaX motif (said of Gγ2 in general))
# T1 construct: Gβ1 subunit; cDNA in pcDNA3.1+ from UMR cDNA Resource Center; FP cloned at the N-terminus; Gγ2 subunit; source: HEK 293, transiently co-transfected (mCherry–Gβ1 and Gγ2), in living cells; not shown: mCherry, N-terminal, kept
# Assay: FRET or BRET; FLIM-FRET in living transiently transfected HEK 293 cells at 37 °C; donor Citrine in Gα, acceptor mCherry on Gβ1 with the appropriate Gγ; efficiency E = 1 − τda/τd from the short lifetime component τ1 (donor alone 2.7 ± 0.1 ns), analysed only at the plasma membrane; GppNHp added to the culture did not change the signal
# Settings: partners not purified
binder,measurement,value
B1,FRET efficiency,19.7%
